Assay results reported in publication PMC11149935, “SAFB regulates hippocampal stem cell fate by targeting Drosha to destabilize Nfib mRNA” (eLife, 2024).

Molecular target: T1, Drosha (endogenous, N2A cells) (mouse (endogenous in N2A), UniProt Q5HZJ0 1-1373)
T1 construct: Drosha, endogenous protein of N2A neuroblastoma cells (ATCC CCL-131); source: endogenous, N2A lysate
T1 sequence (looked up): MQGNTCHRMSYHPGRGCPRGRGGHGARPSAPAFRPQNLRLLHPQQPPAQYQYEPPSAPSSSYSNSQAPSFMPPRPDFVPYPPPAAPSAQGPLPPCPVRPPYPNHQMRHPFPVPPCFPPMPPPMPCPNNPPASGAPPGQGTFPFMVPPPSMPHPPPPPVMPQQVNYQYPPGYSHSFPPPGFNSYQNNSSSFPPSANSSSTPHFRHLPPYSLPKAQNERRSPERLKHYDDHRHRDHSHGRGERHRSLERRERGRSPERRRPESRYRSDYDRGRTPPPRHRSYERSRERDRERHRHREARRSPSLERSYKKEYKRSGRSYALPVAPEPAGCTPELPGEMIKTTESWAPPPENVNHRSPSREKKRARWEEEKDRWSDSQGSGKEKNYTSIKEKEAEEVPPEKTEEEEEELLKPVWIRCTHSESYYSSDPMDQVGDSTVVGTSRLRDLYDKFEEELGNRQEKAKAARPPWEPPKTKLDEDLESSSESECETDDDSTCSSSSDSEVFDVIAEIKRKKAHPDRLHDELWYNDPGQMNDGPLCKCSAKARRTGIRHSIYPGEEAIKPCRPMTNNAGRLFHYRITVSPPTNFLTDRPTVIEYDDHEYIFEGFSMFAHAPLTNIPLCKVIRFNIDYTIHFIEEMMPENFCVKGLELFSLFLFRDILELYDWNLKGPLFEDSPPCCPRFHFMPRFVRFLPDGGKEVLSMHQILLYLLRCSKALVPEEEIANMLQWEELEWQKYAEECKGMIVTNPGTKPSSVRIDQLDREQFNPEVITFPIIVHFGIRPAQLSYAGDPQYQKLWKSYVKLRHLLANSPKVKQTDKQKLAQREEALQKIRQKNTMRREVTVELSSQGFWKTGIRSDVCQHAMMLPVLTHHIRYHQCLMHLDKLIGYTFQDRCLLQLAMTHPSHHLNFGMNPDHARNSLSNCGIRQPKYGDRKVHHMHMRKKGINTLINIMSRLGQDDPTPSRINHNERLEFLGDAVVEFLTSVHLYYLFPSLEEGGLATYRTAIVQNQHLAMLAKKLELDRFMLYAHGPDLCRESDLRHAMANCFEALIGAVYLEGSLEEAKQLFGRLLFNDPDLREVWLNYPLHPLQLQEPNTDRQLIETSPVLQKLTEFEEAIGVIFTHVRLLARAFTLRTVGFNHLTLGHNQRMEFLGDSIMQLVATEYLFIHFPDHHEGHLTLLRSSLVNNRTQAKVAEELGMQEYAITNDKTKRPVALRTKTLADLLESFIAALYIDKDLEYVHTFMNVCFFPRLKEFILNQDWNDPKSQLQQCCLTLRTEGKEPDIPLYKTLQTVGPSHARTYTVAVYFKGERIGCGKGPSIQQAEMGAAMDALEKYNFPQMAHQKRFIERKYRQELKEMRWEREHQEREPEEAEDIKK
Experiment: co-IP; N2A cells transfected with SAFB-HA or SAFB-ΔRE-HA, 48 hr; IP of endogenous Drosha, anti-HA immunoblot, densitometry relative to Drosha; IgG isotype control IP
Conditions: partners not purified

B1: SAFB-ΔRE-HA (natural protein, UniProt Q15424 1-915, looked up)
chain: MAETLSGLGDSGAAGAAALSSASSETGTRRLSDLRVIDLRAELRKRNVDSSGNKSVLMERLKKAIEDEGGNPDEIEITSEGNKKTSKRSSKGRKPEEEGVEDNGLEENSGDGQEDVETSLENLQDIDIMDISVLDEAEIDNGSVADCVEDDDADNLQESLSDSRELVEGEMKELPEQLQEHAIEDKETINNLDTSSSDFTILQEIEEPSLEPENEKILDILGETCKSEPVKEESSELEQPFAQDTSSVGPDRKLAEEEDLFDSAHPEEGDLDLASESTAHAQSSKADSLLAVVKREPAEQPGDGERTDCEPVGLEPAVEQSSAASELAEASSEELAEAPTEAPSPEARDSKEDGRKFDFDACNEVPPAPKESSTSEGADQKMSSPEDDSDTKRLSKEEKGRSSCGRNFWVSGLSSTTRATDLKNLFSKYGKVVGAKVVTNARSPGARCYGFVTMSTAEEATKCINHLHKTELHGKMISVEKAKNEPVGKKTSDKRDSDGKKEKSSNSDRSTNLKRDDKCDRKDDAKKGDDGSGEKSKDQDDQKPGPSERSRAVRRPYDLDRRDDAYWPEAKRAALDERYHSDFNRQDRFHDFDHRDRGRYPDHSVDRREGSRSMMGEREGQHYPERHGGPERHGRDSRDGWGGYGSDKRMSEGRGLPPPPRRDWGDHGRREDDRSWQGTADGGMMDRDHKRWQGGERSMSGHSGPGHMMNRGGMSGRGSFAPGGASRGHPIPHGGMQGGFGGQSRGSRPSDARFTRRY
notes: SAFB lacking the RE-rich region (amino acids 552-708), made from CAG::Safb-HA-IRES-Cfp by Q5 site-directed mutagenesis; Parent is m26; Also expressed in DG NSCs for the reporter assay; also called CAG::Safb-ΔRE-HA-IRES-Cfp; source: N2A, transfected (TransFectin), in lysate
  fold reduction in binding against SAFB WT: 5.7 fold
